From paper PMC3153463

Molecular target: H103C mutant of RAV-1 IN CCD (RAV-1 IN CCD_(H103C)), residues 53-199 (Rous-associated virus type 1 (RAV-1))
Test: cross-linking; engineered Cys103-Cys103 disulfide bond; denaturing SDS-PAGE in non-reducing conditions; mass spectrometry (MALDI-TOF) of tryptic peptides

Substance “H103C mutant of RAV-1 IN CCD (RAV-1 IN CCD_(H103C)), residues 53-199 (domain or fragment)” has a stoichiometry N of 2.
